From patent US20240182561A1 (Regeneron, published 2024)

T1: mouse CACNG1 expressed on cells (mouse, UniProt O70578 1-223)
T1 sequence (looked up): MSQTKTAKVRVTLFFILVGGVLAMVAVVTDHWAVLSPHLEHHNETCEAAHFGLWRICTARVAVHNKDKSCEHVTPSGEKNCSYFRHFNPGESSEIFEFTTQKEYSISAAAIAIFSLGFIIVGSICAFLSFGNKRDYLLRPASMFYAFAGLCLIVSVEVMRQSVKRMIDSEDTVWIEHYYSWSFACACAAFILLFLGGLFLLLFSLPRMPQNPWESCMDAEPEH

B1: REGN14571-M3004 (antibody, human IgG1, kappa, N297Q)
heavy chain: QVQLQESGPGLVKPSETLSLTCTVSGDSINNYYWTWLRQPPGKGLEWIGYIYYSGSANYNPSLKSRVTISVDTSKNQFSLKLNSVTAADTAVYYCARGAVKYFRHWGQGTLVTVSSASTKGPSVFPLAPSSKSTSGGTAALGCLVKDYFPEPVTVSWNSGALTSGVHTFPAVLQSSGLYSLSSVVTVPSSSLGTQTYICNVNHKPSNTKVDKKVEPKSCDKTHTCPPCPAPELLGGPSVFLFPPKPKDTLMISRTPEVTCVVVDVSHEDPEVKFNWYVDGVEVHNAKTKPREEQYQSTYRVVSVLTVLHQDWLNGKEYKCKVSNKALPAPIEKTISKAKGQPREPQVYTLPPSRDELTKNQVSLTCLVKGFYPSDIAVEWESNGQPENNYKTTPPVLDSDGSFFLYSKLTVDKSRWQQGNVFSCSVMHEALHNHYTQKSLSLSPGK
light chain: EIVLTQSPGTLSLSPGERATLSCRASQTINHNNLAWYQQRPGQAPRLLIYGASNRATAIPDRFSGSGSGTDFTLTISRLEPEDFEVYSCQQYGSLPLTFGGGTKVEIKRTVAAPSVFIFPPSDEQLKSGTASVVCLLNNFYPREAKVQWKVDNALQSGNSQESVTEQDSKDSTYSLSSTLTLSKADYEKHKVYACEVTHQGLSSPVTKSFNRGEC
modifications: N297Q; DHT linker-payload M3004 conjugated, DAR about 4
B2: REGN14572 (antibody, human IgG1, kappa, N297Q)
heavy: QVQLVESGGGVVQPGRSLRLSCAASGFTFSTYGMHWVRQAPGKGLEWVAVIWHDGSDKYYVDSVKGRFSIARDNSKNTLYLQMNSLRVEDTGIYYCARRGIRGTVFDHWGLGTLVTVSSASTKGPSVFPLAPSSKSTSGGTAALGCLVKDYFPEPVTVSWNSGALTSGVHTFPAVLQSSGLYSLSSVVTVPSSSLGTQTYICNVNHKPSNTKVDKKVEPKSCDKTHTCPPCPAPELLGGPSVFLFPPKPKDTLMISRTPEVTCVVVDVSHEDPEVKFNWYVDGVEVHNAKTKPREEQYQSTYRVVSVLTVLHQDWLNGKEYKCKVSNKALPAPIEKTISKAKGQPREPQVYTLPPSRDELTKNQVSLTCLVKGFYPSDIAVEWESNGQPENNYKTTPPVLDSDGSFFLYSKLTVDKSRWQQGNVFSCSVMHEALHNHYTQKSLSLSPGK
light: DIQMTQSPSTLSASVGDRVTLTCRASQSISNKLAWYQQKPGKAPNLLIYKASNLESGVPSRFSGSGSGTEFTLTISSLQPDDFATYYCQQYNSYSWTFGQGTKVEIKRTVAAPSVFIFPPSDEQLKSGTASVVCLLNNFYPREAKVQWKVDNALQSGNSQESVTEQDSKDSTYSLSSTLTLSKADYEKHKVYACEVTHQGLSSPVTKSFNRGEC
B3: REGN10716 (antibody, human IgG4 S228P, kappa)
heavy: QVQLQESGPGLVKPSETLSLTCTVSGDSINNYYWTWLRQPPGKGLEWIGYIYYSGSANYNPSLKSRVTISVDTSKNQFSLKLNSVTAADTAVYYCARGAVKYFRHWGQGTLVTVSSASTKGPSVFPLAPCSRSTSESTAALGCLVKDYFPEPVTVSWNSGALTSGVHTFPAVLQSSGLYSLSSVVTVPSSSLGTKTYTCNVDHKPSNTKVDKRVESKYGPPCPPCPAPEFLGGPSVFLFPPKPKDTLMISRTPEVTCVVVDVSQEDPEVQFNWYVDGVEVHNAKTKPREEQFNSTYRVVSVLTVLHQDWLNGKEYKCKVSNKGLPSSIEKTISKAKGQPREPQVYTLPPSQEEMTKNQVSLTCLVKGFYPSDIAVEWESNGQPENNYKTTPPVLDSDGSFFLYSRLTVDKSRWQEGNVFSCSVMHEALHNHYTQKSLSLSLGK
light: B1 light chain
notes: hIgG4
B4: REGN10712 (antibody, human IgG4 S228P, lambda, V domains shown)
VH: QVQLVESGGGVVQPGRSLRLSCAASGFTFSTYGMYWVRQTPGKGLEWVTVISFDGNKKYYADSVKGRFTISRDNSKNTLFLQMNSLKTEDTAVYYCAKSSNWNYGSFDIWGQGTMVTVSS
VL: QSVLTQPPSVSGAPGQRVTISCTGSSSNIGAGYDVHWYQQLPGTAPRLLISYNSNRPSGVPDRFSGSKSGTSASLAITGLQAEDEADYYCQSYDRSLSGSVFGGGTQLTVLG
notes: hIgG4
B5: H2aM31929N (antibody, V domains shown)
VH: QVQLVESGGGVVQPGRSLRLSCTASGITFRNYGMHWVRQAPGKGLEWVAVMWYDGSNKYYADSVKGRFTISGDNSKVYLQMNSLRAEDTAVYYCARRGTIRTAAPFDYWGQGTLVTVSS
VL: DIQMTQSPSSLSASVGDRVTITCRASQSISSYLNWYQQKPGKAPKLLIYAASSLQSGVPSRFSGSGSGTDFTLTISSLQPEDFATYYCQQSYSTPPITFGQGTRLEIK
notes: also called H2aM31929N/REGN10728 (lot H2aM31929N-L1)
B6: H4H31265P2 (antibody, human IgG4 S228P, kappa, V domains shown)
VH: QVQLVESGGGVVQPGRSLRLSCTASGFTFRSYGMHWVRQAPGKGLEWVSVIWIDGNNIYYADSVKGRFTISRDNSKNTLYLQMDSLRAEDTAVYYCARRLAITSAAPFDYWGQGTLVTVSS
VL: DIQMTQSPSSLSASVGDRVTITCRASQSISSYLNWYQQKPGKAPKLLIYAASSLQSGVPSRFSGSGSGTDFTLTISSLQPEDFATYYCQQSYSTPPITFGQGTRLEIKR
notes: also called H4H31265P2/REGN5972 (lot H4H31265P2-L1)
B7: REGN10717 (antibody, human IgG4 S228P, kappa)
heavy: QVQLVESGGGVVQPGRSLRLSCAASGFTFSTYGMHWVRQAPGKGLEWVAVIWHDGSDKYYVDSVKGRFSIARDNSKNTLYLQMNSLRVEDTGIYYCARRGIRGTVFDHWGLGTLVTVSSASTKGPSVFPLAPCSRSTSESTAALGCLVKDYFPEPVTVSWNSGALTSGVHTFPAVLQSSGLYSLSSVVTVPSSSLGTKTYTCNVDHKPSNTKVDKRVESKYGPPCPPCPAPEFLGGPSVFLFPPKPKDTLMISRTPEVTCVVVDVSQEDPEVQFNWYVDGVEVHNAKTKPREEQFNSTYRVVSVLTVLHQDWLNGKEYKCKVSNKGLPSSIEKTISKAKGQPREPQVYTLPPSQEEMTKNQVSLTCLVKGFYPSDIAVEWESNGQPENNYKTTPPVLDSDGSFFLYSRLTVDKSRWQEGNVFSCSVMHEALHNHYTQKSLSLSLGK
light: B2 light
notes: hIgG4

These binders were tested against T2, human CACNG1 expressed on cells (human, UniProt Q06432 1-222) (assay: cell-based or functional assay).
T2 sequence (Q06432 whole entry): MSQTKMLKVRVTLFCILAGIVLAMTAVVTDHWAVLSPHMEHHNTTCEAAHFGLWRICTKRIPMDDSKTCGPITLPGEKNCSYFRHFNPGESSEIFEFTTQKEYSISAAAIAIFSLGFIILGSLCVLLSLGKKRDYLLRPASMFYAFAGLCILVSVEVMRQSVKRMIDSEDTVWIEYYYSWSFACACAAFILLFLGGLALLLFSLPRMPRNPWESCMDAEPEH

Row | Binder | EC50 of androgen receptor luciferase reporter activation (RLU) by the DHT conjugate REGN14571-M3004 in hCACNG1.AR.Luc LNCaP cells, 48 hours; concentration adjusted for DAR | EC50 of androgen receptor luciferase reporter activation (RLU) by the DHT conjugate REGN14572-M3004 in hCACNG1.AR.Luc LNCaP cells, 48 hours; concentration adjusted for DAR
1 | B1 | 6.95 nM | 
2 | B2 |  | 11.9 nM

The binders below were run against T3, nanodisc embedded human CACNG1 expressed with a C-terminal PADRE-Flag-His tag (human, UniProt Q06432 1-222) (assay: SPR, anti-His-captured nanodisc, 25 C).
T3 construct: Captured on an anti-His Biacore surface; also called human CACNG1 nanodisc; CACNG1 nanodisc; not shown: C-terminal tag
T3 sequence (Q06432 whole entry): as above
Protocol: Equilibrium dissociation constants (KD values) for nanodisc embedded human CACNG1 expressed with a C-terminal […] tag (human CACNG1 nanodisc; concentration 0.82 mg/ml) binding to purified anti-CACNG1 antibodies were determined using a real-time surface plasmon resonance biosensor technology with a Biacore T200 instrument. The CM5 Biacore sensor surface was derivatized by amine coupling with a monoclonal mouse anti-His antibody (Cytiva; Marlborough, MA). All Biacore binding studies were performed in a buffer composed of 0.01M HEPES, 0.15M NaCl, 1 mM CaCl₂, 0.5 mM MgCl₂, pH 7.4 (HBS-N++ running buffer). Different concentrations of anti-CACNG1 antibodies (ranging from 300 nM to 12 nM in 5-fold serial dilutions) prepared in HBS-N++ running buffer were injected over the captured human CACNG1 nanodisc at a flow rate of 30 μL/minute. Antibody association was monitored for 2 minutes while dissociation was monitored in HBS-N++ running buffer for 5 minutes. At the end of each cycle, the human CACNG1 nanodisc capture surface was regenerated using three 10 second injections of 10 mM Gly pH1.5. All binding kinetics experiments were performed at 25° C.
The specific SPR-Biacore sensorgrams were obtained by a double referencing procedure. The double referencing was performed by first subtracting the signal of each injection over a reference surface (anti-His) from the signal over the experimental surface (anti-His captured human CACNG1 nanodisc) thereby removing contributions from refractive index changes. In addition, running buffer injections were performed to allow subtraction of the signal changes resulting from the dissociation of captured antibodies from the coupled anti-His surface. Kinetic association (kₐ) and dissociation ([…]) rate constants were determined by fitting the real-time sensorgrams to a 1:1 binding model using Scrubber v2.0c curve fitting software. Binding dissociation equilibrium constants (KD) and dissociative half-lives (t %) were calculated from the kinetic rate constants as: […]

Row | Binder | Kd | koff | kon | mAb bound at 300 nM | t1/2
3 | B3 | 0.114 nM | 8.36e-05 s⁻¹ | 730000 M⁻¹ s⁻¹ | 31 RU | 138 min
4 | B4 | 4.53 nM | 0.00332 s⁻¹ | 733000 M⁻¹ s⁻¹ | 31 RU | 3.5 min
5 | B5 | 0.745 nM | 0.000559 s⁻¹ | 750000 M⁻¹ s⁻¹ | 25 RU | 20.7 min
6 | B6 | 81 nM | 0.0084 s⁻¹ | 104000 M⁻¹ s⁻¹ | 14 RU | 1.4 min
7 | B7 | 104 nM | 0.0304 s⁻¹ | 294000 M⁻¹ s⁻¹ | 7 RU | 0.4 min

Biological target: T2, human CACNG1 expressed on cells
Assay: cell-based or functional assay
Remark: another data set of the same source

Row | Binder | % KILL, indirect cell killing, HEK293/hCACNG1 | % KILL, indirect cell killing, HuSKM | EC50/IC50, indirect cell killing, HEK293/hCACNG1 | EC50/IC50, indirect cell killing, HuSKM
8 | B3 | 95.1% | 61.7% | 0.00295 nM | 0.34 nM
9 | B5 | 95% | 96.3% | 0.00277 nM | 0.031 nM
10 | B6 | 94.6% | 95.6% | 0.00245 nM | 0.56 nM
11 | B7 | 97% | 99.6% | 0.000806 nM | 0.0364 nM

The binders below were run against T1, mouse CACNG1 expressed on cells (assay: cell-based or functional assay).

Row | Binder | % KILL, indirect cell killing, C2C12 | % KILL, indirect cell killing, HEK293/mCACNG1 | EC50/IC50, indirect cell killing, C2C12 | EC50/IC50, indirect cell killing, HEK293/mCACNG1
12 | B3 | 99.9% | 91.2% | 0.0167 nM | 0.00893 nM
13 | B5 | 7.5% | 18.3% | > 10 nM | > 1 nM
14 | B6 | 3.4% | 22.9% | > 10 nM | > 1 nM
15 | B7 | 99.8% | 96% | 0.00356 nM | 0.00118 nM

The binders below were run against T2, human CACNG1 expressed on cells (assay: imaging cell binding, HuSKM myotubes).
Protocol: (§1) HuSKM were seeded in collagen-coated 96-well plates (Greiner Bio-One #655956) at 8,500 cells/well and grown for 24 hours. The growth media was changed to MyoTonic Differentiation Media (Cook Myosite Cat #MD-5555) and replaced every 2 days. Myotubes were assayed after 6 days of differentiation. C2C12 mouse myoblasts were maintained in DMEM with 10% FBS and 1% penicillin-streptomycin supplement and grown in a 37° C. incubator with 5% CO₂. C2C12 cells were seeded in collagen-coated 96-well plates (Greiner Bio-One #655956) at 10,000 cells/well for the cell binding assay and 5,000 cells/well for the cell killing assay. After 24 hours, growth media was replaced with differentiation media (DMEM with 2% horse serum) and placed in a 37° C. incubator with 7.5% CO₂. C2C12 myotubes were assayed after 3 days of differentiation. HEK293/hCACNG1, HEK293/mCACNG1, and HEK293 cells were seeded at 10,000 cells (cell binding assay) or 2,000 (cell killing assay) per well in 96-well black collagen coated plates (Greiner Bio-One, cat #655956) in complete growth media and grown overnight at 37° C. in 5% CO₂.
(§2) Relative binding of anti-CACNG1 antibodies was assessed across the entire panel of cell lines via imaging analysis. […] After one wash with antibody dilution buffer, samples were fixed in CytoFix (BD Biosciences, Cat #554655) diluted 1:1 in PBS and supplemented with a 1:2000 dilution of Hoechst 33342 (Thermo, Cat #H1399) for 20 minutes on ice. Images were acquired with a 10× objective on the Opera Phenix (Perkin Elmer) and relative fluorescence units (RFU) was determined using Harmony software (Perkin Elmer).

Row | Binder | EC50 | S/N
16 | B3 | 13 nM | 466 fold
17 | B5 | 1.9 nM | 252 fold
18 | B6 | 3.3 nM | 250 fold
19 | B7 | 69 nM | 292 fold

What follows are binders tested against T2, human CACNG1 expressed on cells (assay: imaging cell binding, HEK293/hCACNG1).
Protocol: as §1, §2

Row | Binder | EC50 | S/N
20 | B3 | > 100 nM | 2.2 fold

Each binder was assayed against T1, mouse CACNG1 expressed on cells (assay: imaging cell binding, C2C12 mouse myotubes).
Protocol: as §1, §2

Row | Binder | EC50 | S/N | binding result
21 | B3 | > 100 nM | 6.3 fold | 
22 | B5 |  | 1.2 fold | no binding (tested: 100 nM highest tested)
23 | B6 |  | 0.8 fold | no binding (tested: 100 nM highest tested)
24 | B7 | > 100 nM | 4.9 fold | 

Biological target: T2, human CACNG1 expressed on cells
Assay: cell-based or functional assay
Remark: another data set of the same source

Row | Binder | EC50 of androgen receptor luciferase reporter activation (RLU) by the DHT conjugate REGN14571-M3004 in hCACNG1.AR.Luc LNCaP cells, 72 hours; concentration adjusted for DAR | EC50 of androgen receptor luciferase reporter activation (RLU) by the DHT conjugate REGN14572-M3004 in hCACNG1.AR.Luc LNCaP cells, 72 hours; concentration adjusted for DAR
25 | B1 | 5.44 nM | 
26 | B2 |  | 10.3 nM

Each binder was assayed against T1, mouse CACNG1 expressed on cells (assay: imaging cell binding, HEK293/mCACNG1).
Protocol: as §1, §2

Row | Binder | EC50 | S/N
27 | B3 | > 100 nM | 21.4 fold
28 | B5 |  | 1 fold
29 | B6 |  | 1.2 fold
30 | B7 | > 100 nM | 23.6 fold

Biological target: T2, human CACNG1 expressed on cells
Assay: imaging cell binding, HuSKM myotubes
Remark: another data set of the same source
Protocol: as §1, §2

Row | Binder | EC50 | S/N
31 | B3 | 12 nM | 81.1 fold
32 | B4 | 0.053 nM | 102 fold

Biological target: T1, mouse CACNG1 expressed on cells
Assay: imaging cell binding, C2C12 mouse myotubes
Remark: another data set of the same source
Protocol: as §1, §2

Row | Binder | EC50 | S/N
33 | B3 | > 100 nM | 5.2 fold
34 | B4 | > 100 nM | 8.6 fold

Biological target: T2, human CACNG1 expressed on cells
Assay: cell-based or functional assay
Remark: another data set of the same source

Row | Binder | EC50 of androgen receptor luciferase reporter activation (RLU) by the DHT conjugate REGN14571-M3004 in hCACNG1.AR.Luc LNCaP cells, 24 hours; concentration adjusted for DAR | EC50 of androgen receptor luciferase reporter activation (RLU) by the DHT conjugate REGN14572-M3004 in hCACNG1.AR.Luc LNCaP cells, 24 hours; concentration adjusted for DAR
35 | B1 | 7.83 nM | 
36 | B2 |  | 11.2 nM

Biological target: T2, human CACNG1 expressed on cells
Assay: imaging cell binding, HEK293/hCACNG1
Remark: another data set of the same source
Protocol: as §1, §2

Row | Binder | EC50 | S/N
37 | B3 | > 100 nM | 35.9 fold
38 | B5 | 6.2 nM | 84 fold
39 | B6 | 11 nM | 247 fold
40 | B7 | > 100 nM | 77.4 fold
